This is an account of results in PMC10030467 (Nature Communications, 2023).

Data set [1] concerns the target KAP1/TRIM28 (Homo sapiens) (UniProt Q13263). The conditions noted are these: cited from earlier work.
Data set [2] deals with the molecule itself. The data set is described as follows: SEC-MALS; point mutants, 100 μL at 1 mg/mL; Superdex 200 increase, 20 mM Tris-HCl pH 8.0, 200 mM NaCl, 0.3 mM TCEP. In general terms: SEC sorts molecules by how far they enter the pores of the column.
Data set [3] concerns the molecule itself. Kind of data set: cross-linking; disulfide bonds by oxidation: about 20 μM protein with 0-0.3% H2O2, 4 °C, 30 min, 20 mM Tris-HCl pH 8.0, 200 mM NaCl, 0.3 mM TCEP; non-reducing PAGE.
Data set [4] concerns the molecule itself. Kind of data set: AUC; sedimentation velocity, increasing protein concentration (1, 2, 10, 20, 50 μM); 20 mM Tris-HCl pH 8.0, 200 mM NaCl, 0.3 mM TCEP, 20 °C; SEDPHAT self-association; dimers to tetramer (and hexamer).
Data set [5] concerns the molecule itself. Kind of data set: AUC; sedimentation velocity, lower protein concentrations of the series 1-50 μM; 20 mM Tris-HCl pH 8.0, 200 mM NaCl, 0.3 mM TCEP, 20 °C; monomers to dimer.
Data set [6] concerns the molecule itself. Kind of data set: AUC + SEC-MALS; deletion constructs of TRIM72 in solution; 20 mM Tris-HCl pH 8.0, 200 mM NaCl, 0.3 mM TCEP.

Residue numbers refer to the chain shown, from its start. Numbers in names are those of the source. Where “and” joins values, the source holds several entries; their conditions need not be identical. Equal values may be shown once.

Turning to KAP1/TRIM28 (from UniProt Q13263), the Kd – broadly, the constant that tells how readily two partners part at equilibrium – in data set [1] was 10 µM.

B1: TRIM72 W277A (natural protein, human, UniProt Q6ZMU5-1 2-477, looked up)
chain: SAAPGLLHQELSCPLCLQLFDAPVTAECGHSFCRACLGRVAGEPAADGTVLCPCCQAPTRPQALSTNLQLARLVEGLAQVPQGHCEEHLDPLSIYCEQDRALVCGVCASLGSHRGHRLLPAAEAHARLKTQLPQQKLQLQEACMRKEKSVAVLEHQLVEVEETVRQFRGAVGEQLGKMRVFLAALEGSLDREAERVRGEAGVALRRELGSLNSYLEQLRQMEKVLEEVADKPQTEFLMKYCLVTSRLQKILAESPPPARLDIQLPIISDDFKFQVARKMFRALMPALEELTFDPSSAHPSLVVSSSGRRVECSEQKAPPAGEDPRQFDKAVAVVAHQQLSEGEHYWEVDVGDKPRWALGVIAAEAPRRGRLHAVPSQGLWLLGLREGKILEAHVEAKEPRALRSPERRPTRIGLYLSFGDGVLSFYDASDADALVPLFAFHERLPRPVYPFFDVCWHDKGKNAQPLLLVGPEGAEA
notes: TRIM72, human, residues 2-477, point mutant; primers are in Supplementary Data 3; source: E. coli Rosetta (DE3), purified; not shown: His-Sumo, N-terminal, cleaved
On to B1, for which the stoichiometry N – broadly, a count of units in the complex or per binding partner – in data set [2] was found to be 2.

B2: TRIM72 W277E (natural protein, human, UniProt Q6ZMU5-1 2-477, looked up)
chain: B1 chain with A276E
notes: TRIM72, human, residues 2-477, point mutant; source: E. coli Rosetta (DE3), purified; not shown: His-Sumo, N-terminal, cleaved
As for B2, the “stoichiometry N” value in data set [2] was found to be 2.

B3: TRIM72 M179A (natural protein, human, UniProt Q6ZMU5-1 2-477, looked up)
chain: B1 chain with M178A, A276W
notes: as for B2
On to B3, for which the “stoichiometry N” value in data set [2] turned out to be 2.

B4: TRIM72 R169A (natural protein, human, UniProt Q6ZMU5-1 2-477, looked up)
chain: B1 chain with R168A, A276W
notes: as for B2
Turning to B4, the “stoichiometry N” value in data set [2] turned out to be 2.

B5: TRIM72 C144S (natural protein, human, UniProt Q6ZMU5-1 2-477, looked up)
chain: B1 chain with C143S, A276W
notes: as for B2
Regarding B5, the binding result in data set [3] is “binds”.

B6: TRIM72 R220A (natural protein, human, UniProt Q6ZMU5-1 2-477, looked up)
chain: B1 chain with R219A, A276W
notes: as for B2
For B6, the “stoichiometry N” value in data set [2] came to 2.

B7: TRIM72 R180A (natural protein, human, UniProt Q6ZMU5-1 2-477, looked up)
chain: B1 chain with R179A, A276W
notes: as for B2
Turning to B7, the “stoichiometry N” value in data set [2] was 2.

B8: TRIM72 I95A (natural protein, human, UniProt Q6ZMU5-1 2-477, looked up)
chain: B1 chain with I94A, A276W
notes: TRIM72, human, residues 2-477, point mutant in the B-box; also called I95A mutant; source: E. coli Rosetta (DE3), purified; not shown: His-Sumo, N-terminal, cleaved
B8 showed a Kd in data set [4] of around 2200 µM.

B9: TRIM72 F272A (natural protein, human, UniProt Q6ZMU5-1 2-477, looked up)
chain: B1 chain with F271A, A276W
notes: as for B2
For the molecule B9, the “stoichiometry N” value in data set [2] came to 2.

B10: TRIM72 R198A (natural protein, human, UniProt Q6ZMU5-1 2-477, looked up)
chain: B1 chain with R197A, A276W
notes: as for B2
As for B10, the “stoichiometry N” value in data set [2] turned out to be 2.

B11: TRIM72 R198E (natural protein, human, UniProt Q6ZMU5-1 2-477, looked up)
chain: B1 chain with R197E, A276W
notes: as for B2
For the molecule B11, the “stoichiometry N” value in data set [2] is 2.

B12: TRIM72 R220E (natural protein, human, UniProt Q6ZMU5-1 2-477, looked up)
chain: B1 chain with R219E, A276W
notes: as for B2
With B12, the “stoichiometry N” value in data set [2] came to 2.

B13: TRIM72 R180E (natural protein, human, UniProt Q6ZMU5-1 2-477, looked up)
chain: B1 chain with R179E, A276W
notes: as for B2
Take B13: the “stoichiometry N” value in data set [2] is 2.

B14: TRIM72 M179E (natural protein, human, UniProt Q6ZMU5-1 2-477, looked up)
chain: B1 chain with M178E, A276W
notes: as for B2
With B14, the “stoichiometry N” value in data set [2] is 2.

B15: TRIM72 R169E (natural protein, human, UniProt Q6ZMU5-1 2-477, looked up)
chain: B1 chain with R168E, A276W
notes: as for B2
As for B15, the “stoichiometry N” value in data set [2] stood at 2.

B16: TRIM72 C242S (natural protein, human, UniProt Q6ZMU5-1 2-477, looked up)
chain: B1 chain with C241S, A276W
notes: as for B2
In the case of B16, the binding result in data set [3] is reported as “binds”.

B17: full-length human TRIM72 protein (2-477) (natural protein, UniProt Q6ZMU5-1 2-477, looked up)
chain: B1 chain with A276W
notes: TRIM72 (MG53), human, residues 2-477; open reading frame of GenBank NM_001008274.4; A dimer in solution at low concentration; the RING domain is not seen in the crystal structure although the full-length protein was crystallised; also called MG53; Tripartite Motif Protein 72; source: E. coli Rosetta (DE3), purified (nickel column, Source Q, Superdex 200 increase); not shown: His-Sumo, N-terminal, …
With B17, in data set [4], the Kd was around 780 µM; the “stoichiometry N” value was 4 and 6. Further, the “stoichiometry N” value in data set [5] amounted to 2.

B18: TRIM72^ΔRING (84-477) (domain or fragment, human, UniProt Q6ZMU5-1 84-477, looked up)
chain: GHCEEHLDPLSIYCEQDRALVCGVCASLGSHRGHRLLPAAEAHARLKTQLPQQKLQLQEACMRKEKSVAVLEHQLVEVEETVRQFRGAVGEQLGKMRVFLAALEGSLDREAERVRGEAGVALRRELGSLNSYLEQLRQMEKVLEEVADKPQTEFLMKYCLVTSRLQKILAESPPPARLDIQLPIISDDFKFQVWRKMFRALMPALEELTFDPSSAHPSLVVSSSGRRVECSEQKAPPAGEDPRQFDKAVAVVAHQQLSEGEHYWEVDVGDKPRWALGVIAAEAPRRGRLHAVPSQGLWLLGLREGKILEAHVEAKEPRALRSPERRPTRIGLYLSFGDGVLSFYDASDADALVPLFAFHERLPRPVYPFFDVCWHDKGKNAQPLLLVGPEGAEA
notes: TRIM72, human, residues 84-477 (B-box, coiled-coil, SPRY); also called RING deletion; source: E. coli Rosetta (DE3), purified; not shown: His-Sumo, N-terminal, cleaved
Regarding B18, the “stoichiometry N” value in data set [6] is 2.

B19: TRIM72^ΔSPRY (2-287) (domain or fragment, human, UniProt Q6ZMU5-1 2-287, looked up)
chain: SAAPGLLHQELSCPLCLQLFDAPVTAECGHSFCRACLGRVAGEPAADGTVLCPCCQAPTRPQALSTNLQLARLVEGLAQVPQGHCEEHLDPLSIYCEQDRALVCGVCASLGSHRGHRLLPAAEAHARLKTQLPQQKLQLQEACMRKEKSVAVLEHQLVEVEETVRQFRGAVGEQLGKMRVFLAALEGSLDREAERVRGEAGVALRRELGSLNSYLEQLRQMEKVLEEVADKPQTEFLMKYCLVTSRLQKILAESPPPARLDIQLPIISDDFKFQVWRKMFRALMPA
notes: TRIM72, human, residues 2-287 (RING, B-box, coiled-coil); source: E. coli Rosetta (DE3), purified; not shown: His-Sumo, N-terminal, cleaved
Consider B19, for which the “stoichiometry N” value in data set [6] turned out to be 2.

B20: TRIM72^ΔRING-B-box (122-477) (domain or fragment, human, UniProt Q6ZMU5-1 122-477, looked up)
chain: AAEAHARLKTQLPQQKLQLQEACMRKEKSVAVLEHQLVEVEETVRQFRGAVGEQLGKMRVFLAALEGSLDREAERVRGEAGVALRRELGSLNSYLEQLRQMEKVLEEVADKPQTEFLMKYCLVTSRLQKILAESPPPARLDIQLPIISDDFKFQVWRKMFRALMPALEELTFDPSSAHPSLVVSSSGRRVECSEQKAPPAGEDPRQFDKAVAVVAHQQLSEGEHYWEVDVGDKPRWALGVIAAEAPRRGRLHAVPSQGLWLLGLREGKILEAHVEAKEPRALRSPERRPTRIGLYLSFGDGVLSFYDASDADALVPLFAFHERLPRPVYPFFDVCWHDKGKNAQPLLLVGPEGAEA
notes: TRIM72, human, residues 122-477 (coiled-coil and SPRY); also called CC-SPRY; source: E. coli Rosetta (DE3), purified; not shown: His-Sumo, N-terminal, cleaved
For the molecule B20, in data set [6], the “stoichiometry N” value came to 2.
